Target: T1, GAL4DBD-BRCA1 wild-type (aa 1315–1863) (UniProt P38398 1315-1863)
T1 construct: BRCA1, aa 1315-1863; bait of the mammalian two-hybrid; source: HEK293FT, transfected (mammalian two-hybrid fusion)
Assay: two-hybrid; mammalian two-hybrid in HEK293FT cells: VP16 AD-PALB2 N- or C-terminal construct (prey) co-transfected with GAL4DBD-BRCA1 or GAL4DBD-BRCA2 (bait), pG5Luc reporter and pGR-TK internal control; dual-luciferase read 24 h post-transfection; mean percentage luciferase activity of 3 independent experiments
Settings: partners not purified

T1 sequence (P38398 1315-1863): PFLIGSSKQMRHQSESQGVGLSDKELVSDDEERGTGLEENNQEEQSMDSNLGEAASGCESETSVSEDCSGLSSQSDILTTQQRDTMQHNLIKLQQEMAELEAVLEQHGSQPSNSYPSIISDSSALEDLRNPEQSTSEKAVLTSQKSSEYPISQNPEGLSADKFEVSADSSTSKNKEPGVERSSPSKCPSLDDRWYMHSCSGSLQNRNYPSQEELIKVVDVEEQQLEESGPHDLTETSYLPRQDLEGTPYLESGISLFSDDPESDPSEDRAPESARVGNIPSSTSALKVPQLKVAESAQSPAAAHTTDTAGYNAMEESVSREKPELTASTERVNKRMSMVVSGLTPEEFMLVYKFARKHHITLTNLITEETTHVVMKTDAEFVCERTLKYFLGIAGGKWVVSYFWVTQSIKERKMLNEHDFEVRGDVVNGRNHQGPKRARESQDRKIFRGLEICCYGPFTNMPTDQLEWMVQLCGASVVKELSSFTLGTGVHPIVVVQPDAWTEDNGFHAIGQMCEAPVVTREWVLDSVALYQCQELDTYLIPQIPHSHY

B1: VP16 AD-PALB2 N-terminal wild-type (aa 1–319) (domain or fragment, human, UniProt Q86YC2 1-319, looked up)
chain: MDEPPGKPLSCEEKEKLKEKLAFLKREYSKTLARLQRAQRAEKIKHSIKKTVEEQDCLSQQDLSPQLKHSEPKNKICVYDKLHIKTHLDEETGEKTSITLDVGPESFNPGDGPGGLPIQRTDDTQEHFPHRVSDPSGEQKQKLPSRRKKQQKRTFISQERDCVFGTDSLRLSGKRLKEQEEISSKNPARSPVTEIRTHLLSLKSELPDSPEPVTEINEDSVLIPPTAQPEKGVDTFLRRPNFTRATTVPLQTLSDSGSSQHLEHIPPKGSSELTTHDLKNIRFTSPVSLEAQGKKMTVSTDNLLVNKAISKSGQLPTSS
notes: PALB2 (1186-amino acid protein), human, aa 1-319; cloned in pVP16 downstream of the VP16 AD cassette; prey; also called PALB2 WT; PALB2 N-terminal construct; source: HEK293FT, transfected (mammalian two-hybrid fusion)
- fold increase of luciferase-reporter activity over BRCA1 alone: 2 fold

Reference: article PMC6847799, “A global functional analysis of missense mutations reveals two major hotspots in the PALB2 tumor suppressor” (Nucleic Acids Research, 2019)
